Results from publication PMC7679967 (Protein Science : A Publication of the Protein Society, 2020).

Biological target: human Hsp90β (HSP90AB1) (human, UniProt P08238 1-724)
Experiment: ITC

Chain of human Hsp90β (HSP90AB1) (P08238 whole entry): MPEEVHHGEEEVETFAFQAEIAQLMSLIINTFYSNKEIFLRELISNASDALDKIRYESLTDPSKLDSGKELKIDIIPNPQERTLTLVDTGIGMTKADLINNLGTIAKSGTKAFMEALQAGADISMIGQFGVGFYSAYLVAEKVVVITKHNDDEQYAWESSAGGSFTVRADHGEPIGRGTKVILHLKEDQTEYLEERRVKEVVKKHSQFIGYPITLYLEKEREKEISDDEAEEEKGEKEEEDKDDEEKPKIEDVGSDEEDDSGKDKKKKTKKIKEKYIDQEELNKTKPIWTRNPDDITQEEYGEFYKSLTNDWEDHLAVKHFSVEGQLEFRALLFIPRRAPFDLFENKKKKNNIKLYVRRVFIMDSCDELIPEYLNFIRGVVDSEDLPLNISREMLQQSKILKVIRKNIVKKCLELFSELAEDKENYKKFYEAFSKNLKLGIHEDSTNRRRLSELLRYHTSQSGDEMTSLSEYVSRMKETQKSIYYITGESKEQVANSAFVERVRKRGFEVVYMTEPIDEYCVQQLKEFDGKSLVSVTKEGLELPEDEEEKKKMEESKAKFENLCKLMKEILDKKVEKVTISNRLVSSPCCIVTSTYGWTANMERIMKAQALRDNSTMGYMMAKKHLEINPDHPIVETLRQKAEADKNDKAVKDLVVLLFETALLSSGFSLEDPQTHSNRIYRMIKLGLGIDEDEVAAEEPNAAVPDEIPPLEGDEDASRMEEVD

B1: Hop112a (Hop aa. 1-352; TPR1, DP1 and TPR2A) (domain or fragment)
chain: not shown
B1 was tested, and the Kd was 3.59 µM and the “stoichiometry N” value was 0.5.
